Laboratory results: paper PMC10995623, “Apple E3 ligase MdPUB23 mediates ubiquitin-dependent degradation of MdABI5 to delay ABA-triggered leaf senescence”

Target: T1, MdABI5 (Malus domestica? (apple), UniProt A0A498IDK6 1-461)
T1 sequence: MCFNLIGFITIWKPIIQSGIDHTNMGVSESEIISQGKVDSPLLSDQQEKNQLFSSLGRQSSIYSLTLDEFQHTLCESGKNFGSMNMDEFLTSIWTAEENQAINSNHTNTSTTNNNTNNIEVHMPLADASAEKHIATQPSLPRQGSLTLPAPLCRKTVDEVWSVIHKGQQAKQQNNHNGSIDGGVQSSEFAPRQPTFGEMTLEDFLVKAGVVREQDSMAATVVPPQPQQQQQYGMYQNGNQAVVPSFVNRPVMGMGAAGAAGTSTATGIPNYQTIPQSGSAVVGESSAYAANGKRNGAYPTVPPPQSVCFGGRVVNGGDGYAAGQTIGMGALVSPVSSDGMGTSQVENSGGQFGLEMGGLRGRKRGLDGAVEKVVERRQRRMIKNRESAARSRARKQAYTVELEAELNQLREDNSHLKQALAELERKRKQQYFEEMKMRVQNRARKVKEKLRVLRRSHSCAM
Experiment: EMSA; MdABI5 alone; Beyotime EMSA/Gel-Shift Kit binding buffer (composition, salt and pH not given), 24 C, 30 min, biotin-labelled probe
Conditions: protein: recombinant; chain copies: 2; label: biotin; blunt

B1: MdSAG18 promoter probe (dsDNA)
DNA 1: GGGGGGGGTCCACGTGGGTCACCAAC
DNA 2: GTTGGTGACCCACGTGGACCCCCCCC
  binding result: no binding
